Data as given in paper PMC5874916.
pKd: −log10 of the molar value.

Key:
[1] = target: purified recombinant eEF1A1 (OriGene), biotinylated (UniProt P68104); assay: BLI; Octet Red; biotinylated eEF1A1 immobilised on streptavidin-coated biosensors, 90 nM RTp51/p66 heterodimer; kinetic buffer 1 mM phosphate, 15 mM NaCl, 0.002% Tween 20, 0.1 mg/ml gelatin
[2] = target: purified recombinant eEF1A1 (OriGene), biotinylated (UniProt P68104); assay: BLI; conditions: biotinylated eEF1A immobilized on a streptavidin-coated biosensor, 90 nM RT heterodimer, E300R in both RTp51 and RTp66 subunits
HaloTag-eEF1A [3] = target: HaloTag-eEF1A (UniProt P68104); assay: FRET or BRET; NanoBRET in HEK293T cells cotransfected with 5 ng RTp66-NanoLuc (donor) and 500 ng HaloTag-eEF1A (acceptor), HaloTag NanoBRET 618 Ligand; BRET ratio of the RSV P-NanoLuc control subtracted, normalized to WT RT
HaloTag-eEF1A [4] = target: HaloTag-eEF1A (UniProt P68104); assay: NanoBRET; conditions: HEK293T cells cotransfected; n = 3; parent: est. 100; read off a plot
[5] = target: HIV-1 reverse transcriptase (Human immunodeficiency virus 1) (UniProt O93215); conditions: cited from earlier work

Sequence of HaloTag-eEF1A (P68104 whole entry): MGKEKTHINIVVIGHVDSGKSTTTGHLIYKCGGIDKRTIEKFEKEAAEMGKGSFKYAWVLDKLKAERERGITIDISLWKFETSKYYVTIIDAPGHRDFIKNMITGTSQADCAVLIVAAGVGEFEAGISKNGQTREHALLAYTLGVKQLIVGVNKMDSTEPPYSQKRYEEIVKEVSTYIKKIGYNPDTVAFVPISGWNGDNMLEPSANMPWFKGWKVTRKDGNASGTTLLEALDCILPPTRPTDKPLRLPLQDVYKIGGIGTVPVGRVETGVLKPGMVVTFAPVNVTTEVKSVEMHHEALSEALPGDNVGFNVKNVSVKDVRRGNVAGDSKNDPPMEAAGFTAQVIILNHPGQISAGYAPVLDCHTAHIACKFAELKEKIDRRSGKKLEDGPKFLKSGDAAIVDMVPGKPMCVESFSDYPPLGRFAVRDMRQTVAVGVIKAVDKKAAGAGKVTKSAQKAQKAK
Sequence of purified recombinant eEF1A1 (OriGene), biotinylated (P68104 whole entry): as above
Sequence of eEF1A (P68104 2-462): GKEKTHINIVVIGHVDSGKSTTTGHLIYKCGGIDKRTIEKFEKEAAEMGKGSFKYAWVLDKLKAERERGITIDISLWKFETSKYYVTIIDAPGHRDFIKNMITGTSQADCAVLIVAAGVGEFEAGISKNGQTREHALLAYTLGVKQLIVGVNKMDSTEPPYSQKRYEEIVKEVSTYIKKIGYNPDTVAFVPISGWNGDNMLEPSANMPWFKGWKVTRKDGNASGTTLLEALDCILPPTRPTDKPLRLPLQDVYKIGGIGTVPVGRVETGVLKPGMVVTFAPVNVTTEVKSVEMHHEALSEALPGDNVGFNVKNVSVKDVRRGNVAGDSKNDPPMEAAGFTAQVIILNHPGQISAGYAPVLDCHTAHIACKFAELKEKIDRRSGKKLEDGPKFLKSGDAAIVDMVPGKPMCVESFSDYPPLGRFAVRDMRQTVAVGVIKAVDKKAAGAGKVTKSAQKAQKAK

6xHis-tagged E300R mutant RTp51/p66 heterodimer purified from E. coli (complex)
fold change of koff against the WT heterodimer [1]: 3 fold | fold weaker binding affinity (KD) than the WT heterodimer [1]: 3 fold

6xHis-tagged WT RTp51/p66 heterodimer purified from E. coli (from UniProt P04585) E300R
pKd ([2]; parent: 3.4787 ± 0.079): 7.99 | koff ([2]; parent: 4.75E-4 ± 2.5E-5): 0.00139 s⁻¹ | kon ([2]; parent: 136350 ± 4150): 135000 1/MS

HIV-1 RTp66-NanoLuc, D250R (enzyme)
percent reduction of the BRET ratio against WT RT (HaloTag-eEF1A [3]): 33%

HIV-1 RTp66-NanoLuc, E297R (enzyme)
percent reduction of the BRET ratio against WT RT (HaloTag-eEF1A [3]): 20%

HIV-1 RTp66-NanoLuc, E298R (enzyme)
percent reduction of the BRET ratio against WT RT (HaloTag-eEF1A [3]): 40%

HIV-1 RTp66-NanoLuc, E300R (enzyme)
percent reduction of the BRET ratio against WT RT (HaloTag-eEF1A [3]): 70%

HIV-1 RTp66-NanoLuc, wild type L303A
percent of parent (HaloTag-eEF1A [4]): 43 % WT

eEF1A (from UniProt P68104)
pKd [5]: 8.46
